Experiments:
Assay in all cases: cell-based or functional assay
GIP receptor = biological target: T1, GIP receptor (UniProt P48546)
T1 sequence (looked up): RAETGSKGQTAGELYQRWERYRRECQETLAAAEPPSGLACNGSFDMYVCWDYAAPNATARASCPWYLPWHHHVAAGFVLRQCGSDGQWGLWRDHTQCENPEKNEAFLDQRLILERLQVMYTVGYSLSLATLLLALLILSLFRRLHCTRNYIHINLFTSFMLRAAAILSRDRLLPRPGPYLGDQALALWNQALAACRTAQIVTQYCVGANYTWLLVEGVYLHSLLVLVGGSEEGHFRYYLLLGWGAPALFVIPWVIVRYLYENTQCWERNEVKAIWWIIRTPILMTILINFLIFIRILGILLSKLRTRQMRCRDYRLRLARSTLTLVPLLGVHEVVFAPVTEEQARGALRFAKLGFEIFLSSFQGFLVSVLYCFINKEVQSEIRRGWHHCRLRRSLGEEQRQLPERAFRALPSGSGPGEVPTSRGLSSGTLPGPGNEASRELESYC

glucagon receptor = glucagon receptor (UniProt P47871)
GLP-1 receptor = GLP-1 receptor (UniProt P43220)
Sequence of GLP-1 receptor (P43220 24-463 limits assumed): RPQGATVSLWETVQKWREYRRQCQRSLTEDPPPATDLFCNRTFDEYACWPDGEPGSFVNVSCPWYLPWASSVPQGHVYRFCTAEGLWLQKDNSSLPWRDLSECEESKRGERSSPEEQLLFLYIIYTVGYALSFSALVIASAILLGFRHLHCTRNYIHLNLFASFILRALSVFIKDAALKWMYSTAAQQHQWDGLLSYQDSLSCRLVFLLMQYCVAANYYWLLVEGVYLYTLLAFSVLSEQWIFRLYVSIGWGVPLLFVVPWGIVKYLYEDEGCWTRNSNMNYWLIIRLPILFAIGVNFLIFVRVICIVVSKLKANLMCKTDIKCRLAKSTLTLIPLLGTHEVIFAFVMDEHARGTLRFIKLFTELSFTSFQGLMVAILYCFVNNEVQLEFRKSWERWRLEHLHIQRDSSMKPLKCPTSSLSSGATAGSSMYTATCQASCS

Sequence of glucagon receptor (P47871 26-477 limits assumed): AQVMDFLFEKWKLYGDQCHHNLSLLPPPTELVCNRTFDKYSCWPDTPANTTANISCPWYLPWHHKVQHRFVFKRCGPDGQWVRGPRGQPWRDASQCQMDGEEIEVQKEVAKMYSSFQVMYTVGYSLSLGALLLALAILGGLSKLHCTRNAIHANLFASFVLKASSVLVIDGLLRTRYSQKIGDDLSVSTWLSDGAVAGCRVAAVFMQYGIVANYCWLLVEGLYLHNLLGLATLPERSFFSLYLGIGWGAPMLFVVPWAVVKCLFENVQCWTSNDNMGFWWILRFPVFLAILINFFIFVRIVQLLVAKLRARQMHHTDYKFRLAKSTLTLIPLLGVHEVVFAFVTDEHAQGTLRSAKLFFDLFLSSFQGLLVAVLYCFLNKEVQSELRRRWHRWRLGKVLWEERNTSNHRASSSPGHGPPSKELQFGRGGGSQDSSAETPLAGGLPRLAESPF

Row | Substance | GIP (EC50) (GIP receptor) [nM] | Glucagon IC50 (glucagon receptor) [nM] | GLP-1 (EC50) (GLP-1 receptor) [nM] | IC50(nM) (cAMP, inhibit 0.2 mM Glucagon) (glucagon receptor)
1 | A1, Aib2, E3 GIP(1-40) (peptide) | 3.89 | – | – | –
2 | HAibEGT-PLA6, (E16K20) G(1-29) (peptide) | – | 12 | 3.6 | –
3 | HAibEGT-PLA6, (E16K20), C24 G(1-29)/A1, Aib2, E3, K40 GIP(1-40) | 1.58 | – | 11.7 | –
4 | HAibEGT-PLA6, (E16K20), C24, cex, K40(rErEC16) G(1-40)/A1, Aib2, E3, K40 GIP(1-40) | 0.379 | – | 0.363 | –
5 | HAibEGT-PLA6, (E16K20), cex, K40(rErEC16) G(1-40) (peptide) | – | 150 | 0.76 | –
6 | HAibEGT-PLA6, K10(rErEC16), (E16K20) G(1-29) (peptide) | – | 14.3 | 0.19 | –
7 | HAibEGT-PLA6, K10(rErEC16), (E16K20), C24 G(1-29)/A1, Aib2, E3, K40 GIP(1-40) | 0.347 | – | 0.813 | –
8 | PLA6, (E16K20), C24 G(6-29)/A1, Aib2, E3, K40 GIP(1-40) | 1.29 | 40.1 | 367 | –
9 | [d-Cys5(20kDaPEG), E9]Glucagon(aa5-29)-NH2 (peptide) | – | – | – | 14800

Reference: patent publication US20120322725A1
